Where “and” joins values, the source holds several entries; their conditions need not be identical. Equal entries are not always repeated.
Columns and labels:
[1] = biological target: human FGF R3 (IIIc) Fc chimera (R&D systems, 766-FR) (human) (UniProt P22607); assay: indirect ELISA, hu8C4 at 30.000 nM
[2] = biological target: human FGF R3 (IIIc) Fc chimera (R&D systems, 766-FR) (human) (UniProt P22607); assay: indirect ELISA, hu8C4 at 0.048 nM
[3] = biological target: human FGF R3 (IIIc) Fc chimera (R&D systems, 766-FR) (human) (UniProt P22607); assay: indirect ELISA, hu8C4 at 0.002 nM
[4] = biological target: human FGF R3 (IIIc) Fc chimera (R&D systems, 766-FR) (human) (UniProt P22607); assay: indirect ELISA, hu8C4 at 0.010 nM
[5] = biological target: c-Met receptor on human tumor cells (MKN45, NCI-H820, HCC827) (human) (UniProt P08581); assay: flow cytometry on MKN45 cells, (MFI 37° C. - IgG)/(MFI 4° C. - IgG) x 100
[6] = biological target: c-Met receptor on human tumor cells (MKN45, NCI-H820, HCC827) (human) (UniProt P08581); assay: flow cytometry on MKN45 cells, 100 nM antibody, 4° C. 1 hour (not internalized), anti-human kappa LC-FITC
[7] = biological target: c-Met receptor on human tumor cells (MKN45, NCI-H820, HCC827) (human) (UniProt P08581); assay: flow cytometry on MKN45 cells, 100 nM antibody overnight at 37° C., antibody left on the surface, anti-human kappa LC-FITC

Chain of c-Met receptor on human tumor cells (MKN45, NCI-H820, HCC827) (human) (P08581 25-1390): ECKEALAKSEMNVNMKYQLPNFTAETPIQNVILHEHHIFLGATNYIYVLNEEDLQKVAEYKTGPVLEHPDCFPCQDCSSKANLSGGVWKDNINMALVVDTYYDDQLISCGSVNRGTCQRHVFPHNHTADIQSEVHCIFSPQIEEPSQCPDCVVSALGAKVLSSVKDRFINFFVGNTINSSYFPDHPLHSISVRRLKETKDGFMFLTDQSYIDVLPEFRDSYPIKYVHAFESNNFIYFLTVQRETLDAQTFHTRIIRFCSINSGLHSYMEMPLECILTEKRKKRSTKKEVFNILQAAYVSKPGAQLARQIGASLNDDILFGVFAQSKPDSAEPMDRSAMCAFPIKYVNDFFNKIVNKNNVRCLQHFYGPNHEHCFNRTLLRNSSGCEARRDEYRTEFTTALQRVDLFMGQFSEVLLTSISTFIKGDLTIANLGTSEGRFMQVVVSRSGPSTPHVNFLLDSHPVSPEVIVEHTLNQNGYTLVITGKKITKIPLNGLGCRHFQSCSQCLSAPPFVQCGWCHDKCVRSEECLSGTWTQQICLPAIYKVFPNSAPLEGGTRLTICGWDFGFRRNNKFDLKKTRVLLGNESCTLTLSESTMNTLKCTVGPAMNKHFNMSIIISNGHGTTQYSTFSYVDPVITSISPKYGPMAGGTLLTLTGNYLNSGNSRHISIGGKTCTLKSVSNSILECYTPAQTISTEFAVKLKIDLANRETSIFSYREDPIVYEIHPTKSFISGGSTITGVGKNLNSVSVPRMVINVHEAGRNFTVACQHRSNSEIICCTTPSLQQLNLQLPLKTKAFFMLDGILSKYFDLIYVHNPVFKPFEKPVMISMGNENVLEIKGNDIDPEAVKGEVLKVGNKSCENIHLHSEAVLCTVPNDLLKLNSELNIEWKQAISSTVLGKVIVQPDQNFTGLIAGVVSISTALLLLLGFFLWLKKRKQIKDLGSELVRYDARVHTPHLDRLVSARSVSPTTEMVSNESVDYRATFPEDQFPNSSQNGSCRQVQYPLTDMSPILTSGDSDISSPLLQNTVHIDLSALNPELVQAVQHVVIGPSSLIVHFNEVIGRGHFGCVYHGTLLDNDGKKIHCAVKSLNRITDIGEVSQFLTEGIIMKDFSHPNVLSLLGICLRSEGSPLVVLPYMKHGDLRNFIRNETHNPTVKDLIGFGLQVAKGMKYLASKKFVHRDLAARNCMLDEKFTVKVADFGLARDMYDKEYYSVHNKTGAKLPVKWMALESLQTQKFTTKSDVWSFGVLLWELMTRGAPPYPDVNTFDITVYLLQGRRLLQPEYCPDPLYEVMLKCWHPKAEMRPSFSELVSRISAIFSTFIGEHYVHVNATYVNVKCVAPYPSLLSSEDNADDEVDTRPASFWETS

| Binder | A450 nm-A570 nm (A450 nm-A570 nm) [1] | A450 nm-A570 nm (A450 nm-A570 nm) [2] | A450 nm-A570 nm (A450 nm-A570 nm) [3] | A450 nm-A570 nm (A450 nm-A570 nm) [4] | Surface bound Ab(%) [5] [%] | FITC MFI [4° C. control] (FITC geo-mean (MFI)) [6] | FITC MFI [37° C. exp.] (FITC geo-mean (MFI)) [7] |
| --- | --- | --- | --- | --- | --- | --- | --- |
| hu8C4 (IgG1 humanized antibody having a hinge region of SEQ ID NO: 38 in hu8C4-1) (antibody, V domains shown) VH: EVQLVESGGGLVQPGGSLRLSCAASGYTFSDYYINWVRQAPGKGLEWIGEIFPGSGNTHFSARFKGRATLSADKSKNTAYLQMNSLRAEDTAVYYCAGGDYGFLYWGQGTLVTVSS VL: DIQMTQSPSSLSASVGDRVTITCGASENIYGALNWYQQKPGKAPKLLIYGATNLADGVPSRFSGSGSGRDFTFTISSLQPEDIATYYCQNVLSSPYTFGQGTKVEIK | 0.01 and 0.02 | 0 | 0 | 0 |  |  |  |
| OA-5D5 (Genentech) (antibody, INN chains, looked up, V domains shown, one-armed) VH: EVQLVESGGGLVQPGGSLRLSCAASGYTFTSYWLHWVRQAPGKGLEWVGMIDPSNSDTRFNPNFKDRFTISADTSKNTAYLQMNSLRAEDTAVYYCATYRSYVTPLDYWGQGTLVTVSS VL: DIQMTQSPSSLSASVGDRVTITCKSSQSLLYTSSQKNYLAWYQQKPGKAPKLLIYWASTRESGVPSRFSGSGSGTDFTLTISSLQPEDFATYYCQQYYAYPWTFGQGTKVEIK |  |  |  |  | 98 | 1760 | 1720 |
